T1: biotinylated human B7-H7 protein (Acro Biosystems, B77-H82F5) (human, UniProt Q9UM44 23-344, biotinylated)
T1 construct: Bought soluble protein; also called biotin-B7H7 protein
T1 sequence (looked up): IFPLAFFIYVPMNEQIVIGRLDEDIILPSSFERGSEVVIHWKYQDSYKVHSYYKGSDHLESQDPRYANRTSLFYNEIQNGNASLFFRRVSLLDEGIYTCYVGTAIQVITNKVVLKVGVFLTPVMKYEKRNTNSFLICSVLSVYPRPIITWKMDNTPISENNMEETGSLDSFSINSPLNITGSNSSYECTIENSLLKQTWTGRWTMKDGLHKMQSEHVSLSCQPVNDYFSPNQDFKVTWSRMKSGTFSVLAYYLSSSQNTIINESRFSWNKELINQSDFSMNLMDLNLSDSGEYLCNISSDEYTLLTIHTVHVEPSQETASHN

T2: human B7-H7 on the cell surface (human, UniProt Q9UM44 23-414)
T2 construct: whole, on cells; also called hB7-H7; hu B7-H7
T2 sequence (looked up): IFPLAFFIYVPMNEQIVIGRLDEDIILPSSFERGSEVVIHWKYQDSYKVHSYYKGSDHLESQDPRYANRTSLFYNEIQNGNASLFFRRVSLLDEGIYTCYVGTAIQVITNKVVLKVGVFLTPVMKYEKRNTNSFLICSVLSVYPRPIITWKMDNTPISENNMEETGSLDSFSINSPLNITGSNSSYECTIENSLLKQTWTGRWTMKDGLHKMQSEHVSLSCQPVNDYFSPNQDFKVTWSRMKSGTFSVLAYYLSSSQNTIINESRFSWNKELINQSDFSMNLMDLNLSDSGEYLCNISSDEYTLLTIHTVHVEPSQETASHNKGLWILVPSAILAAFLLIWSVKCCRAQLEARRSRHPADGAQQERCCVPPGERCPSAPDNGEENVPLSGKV

T3: human B7-H7 recombinant protein (human, UniProt Q9UM44 23-344)
T3 construct: also called human B7-H7 protein
T3 sequence (looked up): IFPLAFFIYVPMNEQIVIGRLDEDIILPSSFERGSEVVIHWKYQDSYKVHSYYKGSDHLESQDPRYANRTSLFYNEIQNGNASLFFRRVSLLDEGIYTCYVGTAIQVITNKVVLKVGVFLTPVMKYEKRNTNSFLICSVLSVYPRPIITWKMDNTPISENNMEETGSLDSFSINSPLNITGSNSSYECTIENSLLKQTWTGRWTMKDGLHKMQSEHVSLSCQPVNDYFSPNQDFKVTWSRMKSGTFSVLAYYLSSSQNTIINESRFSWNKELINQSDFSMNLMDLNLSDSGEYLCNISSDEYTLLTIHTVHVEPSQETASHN


How the values were obtained:
[1] = target: T1, biotinylated human B7-H7 protein (Acro …); experiment: flow cytometry, blocking of biotinylated human B7-H7 binding to HEK-293/CD28H cells
Procedure: This example was intended to study the in vitro blocking activity of human anti-B7-H7 antibodies against the binding of human B7-H7 to its receptor CD28H. […] The cells were adjusted to a cell density of 1×10⁶ cells/mL. […] The cells were incubated at 4° C. for 1 hour in the dark. […] The cells were rinsed twice by adding pre-chilled PBS containing 2% BSA at 100 μL/well, and were centrifuged at 500 g at 4° C. for 5 minutes, and the supernatant was discarded. A fluorescent secondary antibody (PE Streptavidin, BD, Cat #: 554061, 1:200) was added at 100 μL/well, and the cells were incubated at 4° C. for 30 minutes in the dark. The cells were washed twice by adding pre-chilled PBS at 200 μL/well, and centrifuged at 500 g at 4° C. for 5 minutes, and the supernatant was discarded. Finally, the cells were resuspended in pre-chilled PBS at 200 μL/well, and the fluorescence signal values were read using an ACEA Novocyte3000 flow cytometer. IC50 was calculated.

[2] = target: T1, biotinylated human B7-H7 protein (Acro …); experiment: flow cytometry, blocking of biotinylated human B7-H7 binding to CHO-K1/KIR3DL3 cells
Text: This example was intended to study the in vitro blocking activity of human anti-B7-H7 antibodies against the binding of human B7-H7 to its receptor KIR3DL3. A CHO-K1 cell (CHO-K1/KIR3DL3, Harbour BioMed US, Inc.) overexpressing human KIR3DL3 was used in experiments at the cellular level where human B7-H7/human KIR3DL3 binding was blocked. Briefly, the CHO-K1/KIR3DL3 cells were digested and resuspended in PBS containing 2% BSA. The cells were adjusted to a cell density of 1×10⁶ cells/mL. […] The cells were incubated at 4° C. for 1 hour in the dark. […] The cells were rinsed twice by adding pre-chilled PBS containing 2% BSA at 100 μL/well, and were centrifuged at 500 g at 4° C. for 5 minutes, and the supernatant was discarded. A fluorescent secondary antibody (PE Streptavidin, BD, Cat #: 554061, 1:200) was added at 100 μL/well, and the cells were incubated at 4° C. for 30 minutes in the dark. The cells were washed twice by adding pre-chilled PBS at 200 µL/well, and centrifuged at 500 g at 4° C. for 5 minutes, and the supernatant was discarded. Finally, the cells were resuspended in pre-chilled PBS at 200 μL/well, and the fluorescence signal values were read using an ACEA Novocyte3000 flow cytometer. IC50 was calculated.

[3] = target: T1, biotinylated human B7-H7 protein (Acro …); experiment: BLI epitope competition on SA-captured biotinylated B7-H7; competitor (first antibody) PR003249
Procedure: Epitope competition experiments were performed on the anti-B7-H7 antibodies using the ForteBio Octet Red96e platform with the same experimental buffer as described above. […] After being equilibrated in a buffer for 120 s, the sensors were immersed in various antibodies diluted to 100 nM for 240 s, and the final signal of the antibody binding to B7-H7 was recorded as the 100% signal for that antibody. Second step, epitope competition experiment: B7-H7 was captured using SA sensors at a capture height of 0.25 nm. The sensors were immersed in a first antibody (concentration: 100 nM) for 240 s, then the SA sensors were immersed in a mixture of the first antibody and a second antibody (final concentration of both antibodies: 100 nM) for 240 s, and the difference in signals before and after immersing the sensors in the mixture of the two antibodies was recorded as the signal for that antibody as the second antibody. The inhibition rate was calculated by the following equation, […]

[4] = target: T4, cynomolgus monkey B7-H7 on the cell surface (cynomolgus monkey); experiment: flow cytometry, HEK-293/cyno B7-H7 cells
T4 construct: whole, on cells; also called cyno B7-H7
Procedure: (§1) This example was intended to study the in vitro activity of H2L2 monoclonal antibodies against human B7-H7 in binding to human/cynomolgus monkey B7-H7. Since homologous molecules of B7-H7 were not present in mice, the detection was not performed. […] The cells were adjusted to a cell density of 1×10⁶ cells/mL, respectively. The cells were seeded in a 96-well V-bottom plate (Corning, #3894) at 100 μL/well, and the antibody to be tested at 2× final concentration with 3-fold concentration gradient dilution was then added at 100 μL/well. The cells were incubated at 4° C. for 2 hours in the dark. After the incubation, the cells were rinsed twice by adding pre-chilled PBS containing 2% BSA at 100 μl/well, and centrifuged at 500 g at 4° C. for 5 minutes, and the supernatant was discarded. […] The cells were washed twice by adding pre-chilled PBS containing 2% BSA at 100 μL/well, and centrifuged at 500 g at 4° C. for 5 minutes, and the supernatant was discarded. Finally, the cells were resuspended in pre-chilled PBS containing 2% BSA at 200 μL/well, and the fluorescence signal values were read using an ACEA Novocyte3000 flow cytometer.

[5] = target: T2, human B7-H7 on the cell surface; experiment: flow cytometry, HCC827 cells
Procedure: as §1

[6] = target: T3, human B7-H7 recombinant protein; experiment: BLI (Octet), antibody captured on AHC sensor, human B7-H7 in solution, 1:1 global fit
Procedure: The binding kinetics between antigen and antibody was analyzed using an Octet Red 96e (Fortebio) molecular interaction analyzer by biolayer interferometry (BLI) technology.
For determining the affinity of antibodies for antigens, the rotary speed of the sensor was set at 1000 rpm. AHC sensors (Fortebio, #18-5060) placed in one column were first equilibrated in a test buffer for 10 minutes, and then used to capture the anti-B7-H7 antibodies at a capture height of 0.7 nm; and after being equilibrated in the buffer for 120 s, the AHC sensors bound to human B7-H7 (concentrations: 50-3.125 nM and 0 nM) with 2-fold gradient dilution for 180 s and dissociated for 300 s. The AHC sensors were finally regenerated by immersing in a 10 mM glycine-hydrochloric acid solution with pH 1.5 to elute the protein bound to the sensors.
For data analysis using Octet Data Analysis software (Fortebio, version 11.0), 0 nM well was used as the reference well, reference subtraction was performed, “1:1 Global fitting” method was selected for data fitting, the kinetic parameters of the binding of the antigen to the antigen-binding protein were calculated, and the kₒₙ (1/Ms) value, kdis (1/s) value and KD (M) value were obtained.

[7] = target: T2, human B7-H7 on the cell surface; experiment: flow cytometry, HEK-293/hu B7-H7 cells
Procedure: as §1

IC50 [1] [nM] | Maximum inhibition rate (%) [1] [%] | IC50 [2] [nM] | Maximum inhibition rate (%) [2] [%] | Competitive inhibition rate (%) [3] [%] | EC50 [4] [nM] | Maximum MFI [4] [MFI] | EC50 [5] [nM] | Maximum MFI [5] [MFI] | Kd [6] [nM] | koff [6] [s⁻¹] | kon [6] [M⁻¹ s⁻¹] | EC50 [7] [nM] | Maximum MFI [7] [MFI] | Binder
1.49 | 100 | 7.5 | 105 | 111 | 0.326 | 275000 | 0.0445 | 60100 | 4.6 | 0.000336 | 73000 | 0.941 | 723000 | PR003261 (antibody, human IgG1, kappa, V domains shown, Human IgG1; also called 74A11E4) VH: QVQLVESGGGVVQPGRSLRLSCAASGFTFSNYGMHWVRQAPGKGLEWVAVIWYDGTNKNYADSVKGRFTISRDNSKNTLDLQMNSLRAEDTAVYFCARDRNTAMDYFVYWGQGTLVTVSS VL: not shown
1.39 | 102 | 7.04 | 101 | 106 | 0.711 | 451000 | 0.0903 | 51800 | 0.595 | 2.93e-05 | 49300 | 1.24 | 824000 | PR003265 (antibody, human IgG1, kappa, V domains shown, Human IgG1; also called 78G8B3) VH: QVQLVESGGGVVQPGRSLRLSCAASGFTFSTYGLHWVRQAPGKGLEWVAVIWYDESNEYYADSVKGRFTISRDNSKNTLYLQMNSLRAEDTALYYCARLAHDYGGTYFDYWGQGTLVTVSS VL: EIVMTQSPAILSVSPGERATLSCRASQSISYNLAWYQQKPGQAPRLLIYGASIRATGIPARFSGSGSGTDFTLTISSLQSEDFAVYYCQQYNNWPPWTFGQGTKVEIKR
1.41 | 101 | 8.49 | 97.2 | 103 | 0.399 | 405000 | 0.00294 | 68800 | 2.91 | 0.000271 | 93200 | 0.995 | 823000 | PR003250 (antibody, human IgG1, kappa, V domains shown, Human IgG1; also called 34G2E6) VH: QVQLVESGGGVVQPGRSLRLSCAASGFTFSDYGIHWVRQAPGKGLEWVAVIWYDGSDKYYADSVRGRFTISRDNSKNTLSLQMNSLRAEDTAVYYCARDRSSGAMGYFAYWGQGTLVTVSS VL: not shown
1.87 | 101 | 12.9 | 99.3 | 108 | 8.51 | 698000 | 0.0399 | 68600 | 1.6 | 0.00014 | 88000 | 1.81 | 981000 | PR003248 (antibody, human IgG1, kappa, V domains shown, Human IgG1, fully human, from Harbour H2L2 mice; also called 13D8D2) VH: QVQLVESGGGVVQPGRSLRLSCAASGFTFSDYGLHWVRQAPGRGLEWVAVIWYDGSEEYYADSVKGRFTISRDNSKKSLYLQMNSLRAEDTAVYFCARDRNSGALGYFPHWGQGTLVTVSS VL: not shown
1.57 | 101 | 8.55 | 102 | 107 | 0.211 | 170000 | 0.0477 | 49300 | 9.93 | 0.000648 | 65200 | 0.663 | 531000 | PR003266 (antibody, human IgG1, kappa, V domains shown, Human IgG1; also called 7D3D2) VH: QVQLVESGGGVVQPGRSLRLSCAASGFTFSDYGMHWVRQAPGKGLEWVAIIWYDGSNKYYADSVKGRFTISRDNSKNTLYLQMNSLRAEDTAVYYCARDRSSGALGYFQHWGQGTLVTVSS VL: not shown
1.43 | 101 | 7.59 | 97.1 | 107 | 0.429 | 414000 | – | 69400 | 1.06 | 0.000132 | 125000 | 1.04 | 837000 | PR003252 (antibody, human IgG1, kappa, V domains shown, Human IgG1; also called 53C12D4) VH: QVQLVESGGGVVQPGRSLRLSCAASGFTFSNYAMHWVRQVPGKGLEWVALIWYDGSEKYYADSVKGRFTISRDDSKNTLFLQMSSLRAEDTAVYSCVREYSSGWGYFDYWGQGTQVTVSS VL: DIQMTQSPSTLSASVGDRVTITCRASQSISSWLAWYQQKPGKAPKLLIYKASSLKSGVPSRFSGSGSGTEFTLTISSLQPDDFATYYCLQYNSYYTFGQGTKLEIKR

From patent publication US20250136696A1 (HARBOUR BIOMED SHANGHAI, published 2025)
